Km and kcat data for 2 substances are collected here from article PMC7050208.

In this series the test system is N[C@@H](CCOP(=O)(O)O)C(=O)O. In words: coupled MESG/PNP phosphate release, A360. The conditions noted are these: 50 mM HEPES-NaOH pH 7.5, 100 μM PLP. It counts as biochemical, Bacillus spizizenii.

Usually Km stands for the concentration of substrate that gives half-maximal velocity. For orientation: kcat means the maximal rate divided by the concentration of active sites.

BsThrC (Bacillus spizizenii): under “0.1 μM enzyme”, the Km came out at 329 µM and the kcat worked out at 1.74 s⁻¹.

Regarding “RhiB (Bacillus spizizenii ATCC 6633 = JCM 2499)”, where the note is “0.25 μM enzyme”, the Km was found to be 824 µM and the kcat was 0.60 s⁻¹.
